Our source for the Km and kcat values is publication PMC13062060, “Calcium activation mechanism of a noncanonical aromatic L-amino acid decarboxylase from psilocybin mushroom Psilocybe cubensis” (Communications Biology, 2026).

By kcat is commonly meant the number of substrate molecules converted per active site and unit of time at saturation.

The data set deals with N[C@@H](Cc1ccccc1)C(=O)O. The data set is described as follows: LC-MS of phenylethylamine formed, Michaelis-Menten fit. The format is biochemical, Psilocybe cubensis. Conditions: 30 mM calcium acetate (activating), 50 mM Tris pH 8.0, room temperature, brackets 95% CI, also measured in 30 mM NaCl. The source says:
LC-MS of phenylethylamine formed, Michaelis-Menten fit on PcncAAAD (noncanonical aromatic L-amino acid decarboxylase)

Regarding “PcncAAAD (noncanonical aromatic L-amino acid decarboxylase) (Psilocybe cubensis)”, the Km was 88 [49–154] µM and the kcat was determined as 0.51 s⁻¹.

Consider “PcncAAAD (noncanonical aromatic L-amino acid decarboxylase) (Psilocybe cubensis; D825A/D931A/D971A/D973A/E637A/E638A/E824A/E972A)”, for which the Km is 586 [359–979] µM and the catalytic constant (kcat) came out at 0.044 s⁻¹.

As for “PcncAAAD (noncanonical aromatic L-amino acid decarboxylase) (Psilocybe cubensis; D825A/D931A/E824A)”, the Km was 174 [105–287] µM and the catalytic constant (kcat) amounted to 0.41 s⁻¹.

As to “PcncAAAD (noncanonical aromatic L-amino acid decarboxylase) (Psilocybe cubensis; D971A/D973A/E637A/E638A/E972A)”, the Km is 513 [319–839] µM and the kcat was 0.073 s⁻¹.
